Measurements taken from PMC9768450.

Columns and labels:
Experiment in all cases: purified protein
[1] = tested on: CCC(=O)SCCNC(=O)CCNC(=O)[C@H](O)C(C)(C)COP(=O)(O)OP(=O)(O)OC[C@H]1O[C@@H](n2cnc3c(N)ncnc32)[C@H](O)[C@@H]1OP(=O)(O)O; conditions: co-substrate acetate 20 mM, 100 mM Tris-HCl pH 7.8, 5 mM MgCl2, 5 mM DTT, 55 °C
[2] = tested on: CC(=O)SCCNC(=O)CCNC(=O)[C@H](O)C(C)(C)COP(=O)(O)OP(=O)(O)OC[C@H]1O[C@@H](n2cnc3c(N)ncnc32)[C@H](O)[C@@H]1OP(=O)(O)O; conditions: co-substrate succinate 40 mM, 100 mM Tris-HCl pH 7.8, 5 mM MgCl2, 5 mM DTT, 55 °C
CCC(=O)O = conditions: co-substrate acetyl-CoA 2 mM, 100 mM Tris-HCl pH 7.8, 5 mM MgCl2, 5 mM DTT, 55 °C
[3] = tested on: CC(C)(COP(=O)(O)OP(=O)(O)OC[C@H]1O[C@@H](n2cnc3c(N)ncnc32)[C@H](O)[C@@H]1OP(=O)(O)O)[C@@H](O)C(=O)NCCC(=O)NCCSC(=O)CCC(=O)O; conditions: co-substrate propionate 20 mM, 100 mM Tris-HCl pH 7.8, 5 mM MgCl2, 5 mM DTT, 55 °C
O=C(O)CCCO = conditions: co-substrate acetyl-CoA 1 mM, 100 mM Tris-HCl pH 7.8, 5 mM MgCl2, 5 mM DTT, 55 °C

succinyl-CoA:acetate CoA-transferase encoded by the AHF96498 gene (AHF96498 gene product) (Desulfurella acetivorans A63)
Km [1]: 1100 ± 300 µM | Vmax [1]: 669 µmol/min/mg | kcat/Km [1]: 584000 M⁻¹ s⁻¹ | Km [2]: 200 ± 40 µM | Vmax [2]: 90 µmol/min/mg | kcat/Km [2]: 534000 M⁻¹ s⁻¹ | Km (CCC(=O)O): 3900 ± 800 µM | Vmax (CCC(=O)O): 875 µmol/min/mg | kcat/Km (CCC(=O)O): 223000 M⁻¹ s⁻¹ | Km [3]: 1200 ± 300 µM | kcat/Km [3]: 14000 M⁻¹ s⁻¹ | Km (O=C(O)CCCO): 400 ± 100 µM | Vmax (O=C(O)CCCO): 7.7 µmol/min/mg | kcat/Km (O=C(O)CCCO): 24000 M⁻¹ s⁻¹
